For experiment [1], the target named is cellular receptors of MIP-1α on primary human monocytes and THP-1 cells (human). As to the kind of experiment: 125I-MIP-1α bound to primary human monocytes, Exp. 2, 6500X excess unlabeled MIP-1α (background control).
For experiment [2] the target is unchanged. As to the kind of experiment: 125I-MIP-1α bound to primary human monocytes, Exp. 2, no inhibitor.
The target is the same in experiment [3]. As to the kind of experiment: 125I-MIP-1α bound to THP-1 cells, Exp. 3, no inhibitor.
The target is the same in experiment [4]. As to the kind of experiment: 125I-MIP-1α bound to human monocytic cells, Exp. 1, no inhibitor.
For experiment [5] the target is unchanged. As to the kind of experiment: 125I-MIP-1α bound to primary human monocytes, Exp. 1, no inhibitor.
The target is the same in experiment [6]. As to the kind of experiment: 125I-MIP-1α bound to human monocytic cells, Exp. 1, 6500X molar excess unlabeled MIP-1α (background control).
For experiment [7] the target is unchanged. As to the kind of experiment: 125I-MIP-1α bound to primary human monocytes, Exp. 1, 6500X excess unlabeled MIP-1α (background control).
For experiment [8] the target is unchanged. As to the kind of experiment: 125I-MIP-1α bound to THP-1 cells, Exp. 3, 6500X excess unlabeled MIP-1α (background control).
The target of experiment [9] is cellular receptor of fMLP (human). As to the kind of experiment: 3H-fMLP bound to cells, Exp. 1, with unlabeled fMLP.
Experiment [10] has the same target. As to the kind of experiment: 3H-fMLP bound to cells, Exp. 1, no inhibitor.

Turning to “human MIP-1α (from UniProt P10147 24-92) (ligand)”, the Surface Bound MIP-1α in experiment [1] worked out at 410 cpm; in experiment [2], 7710 cpm; in experiment [3] it was 9940 cpm; in [4], 12200 cpm; in [5] it was 4700 cpm; in [6], 444 cpm. For the same substance, the Surface Bound MIP-1α is 470 cpm in [7] and 1040 cpm in experiment [8].
Turning to fMLP (peptide), the Surface Bound fMLP in experiment [9] was 132 cpm; in [10], 374 cpm.

For the origin of these results see patent publication EP1034789A1.
